Read-outs that look alike come from different tables or passages of the source.
Tests used:
p85α [1] = molecular target: T1, p85α (Bos taurus, UniProt P23727); assay: Binding of baculovirus expressed p85α to peptide columns; set-up: made in house; host or cells: Sf9 insect cells (baculovirus pAcC4-p85α); species or system bovine
Protocol: (§1) Proteins were diluted in binding buffer (50 mM phosphate buffer (pH 7.2), 150 mM NaCl, 0.02% Triton X-100, 2 mM EDTA and 200 μM sodium orthovanadate), mixed with the appropriate peptide affinity resin and then allowed to bind for 2 h at 4° C. with rotation. The column material was washed repeatedly (>6×) with 50 column volumes of the same buffer and then with various elution buffers containing NaCl, urea or detergents. Bound proteins were either assayed for PI3-kinase activity or were removed from the column by boiling in SDS-PAGE sample buffer and then analysed by SDS-PAGE.
Baculovirus expressed bovine p85α and p85β were chosen to test these columns (Otsu et al, 1991).

bovine brain PI3-kinase = molecular target: T2, bovine brain PI3-kinase (Bos taurus, UniProt P23727); assay: Binding of partially purified bovine brain PI3-kinase to peptide affinity columns
T2 construct: P13-kinase purified from bovine brain is a complex of p85α and p10; from tissue; host or cells: bovine brain
Protocol: as §1

[2] = PI3-kinase assay on immunoprecipitates from baculovirus infected Sf9 cells; assay type: biochemical; conditions: expressed in Sf9 cells
Protocol: (§2) The assay for PI3-kinase activity was carried out as described by Whitman et al. (1985).
To clone the p110 coding region into the baculovirus transfer vector p36C (Page, 1989) a Sau 3A1 site (GGATCA) present 10 nucleotides upstream from the initiation codon (see FIG. 9) was changed to a BamHI (GGATCC site by PCR mediated mutagenesis. Briefly, a sense oligonucleotide substituting C for A at position 6 of the Sau3A1 site was used in a PCR reaction with an antisense primer comprising nucleotides (102-124) of the p110 sequence. (see FIG. 9) using Vent polymerase (New England Biolabs). Template DNA was random-primed first strand cDNA prepared from SGBAF-1 cell mRNA as described above; PCR conditions: 94° C. 1 min, 50° C. 1 min, 72° C. 2 min, 35 cycles. The PCR product was digested with BamHl-EcoNl and a 118 bp fragment isolated from a low melting point agarose gel. […] The BamHl-EcoNl fragment of p110/(BamHl) was sequenced and found to agree with that previously determined. […] Cells were harvested and lysed 2 days post-infection in EB lysis buffer (20 mM Tris-HCl (pH 7.4), 50 mM NaCl, 50 mM NaF, 1% NP40, 1 mM EDTA, 500 μM sodium orthovanadate, 2 mM PMSF, 100 Kallikrein inhibitor units of Aprotinin ml^−1) (Kazlauskas and Cooper, 1989) and lysates were analysed by […].

CSF-1 receptor = molecular target: T3, CSF-1 receptor (Homo sapiens, UniProt P07333); assay: In vitro association of PI3-kinase activity with the CSF-1 receptor; assay type: binding; conditions: Sf9 cell lysates, receptor phosphorylated with ATP before incubation
T3 construct: made in house; host or cells: Sf9 insect cells (baculovirus)
Protocol: This assay was performed essentially as described by Kazlauskas and Cooper (1990). Sf9 cells were infected as already described and lysed 48 h post-infection in EB lysis buffer. CSF-1 receptor was immunoprecipitated from Sf9 cells and collected on Protein A-Sepharose beads. The immunocomplex was then subjected to extensive washing (3 times with EB lysis buffer, twice with kinase buffer; 50 mM HEPES (pH 7.4), 150 mM NaCl, 0.02% Triton X-100, 12 mM MgCl2, 2 mM MnCl2, 10% glycerol, 500 μM sodium orthovanadate) and the receptor phosphorylated for 15 min at 20° C. with ATP. The precipitates were then washed again to remove free ATP and incubated for 2 h at 4° C. with cell lysates prepared from Sf9 cells infected with viruses expressing (i) p85α, (ii) p110 or (iii) co-infected with viruses expressing p85α and p110. The immune complexes were washed and assayed for associated PI3-kinase activity.

[3] = PI3-kinase assay on immunoprecipitates from transfected COS-1 cells; assay type: biochemical; conditions: anti-p110 antiserum
Protocol: as §2
For transient expression of p85α in COS-1 cells the coding region for p85α was cloned into the adenovirus late promoter based expression vector pMT2 (Kaufman et al, 1989) as previously described (Otsu et al, 1991). For expression of the p110 cDNA plasmid pSG5-p110 was constructed as follows. The 3.4 kb BamHl-HindIII fragment from cDNA p2.1 was ligated into pSG5 (Stratagene) cut with BamHl and BglII, the HindIII and BglII overhangs of p2.1 and pSG5 respectively, being filled in with Klenow polymerase. This gave construct pSG5.2. Plasmid pBS/race (above) was digested with EcoRl and Hindlll, the 350 bp band gel purified by electroelution (Maniatis et al, 1982) and further digested with Sau3Al and Bsml. This mixture was then added to the gel purified Bsml-BstMl fragment from p2.1 and ligated in a three fragment ligation to pSG5.2 digested with BamHl and BstXl. […] Lysates were analysed by immunoprecipitation with anti-p85α polyclonal antiserum or with anti-p110 C-terminal peptide antiserum. Immunocomplexes collected on Protein A-Sepharose beads were analysed either on 10% SDS-PAGE gels followed by autoradiography or subjected to in vitro PI3-kinase assays as described.

Y751 phosphopeptide = assay: phosphopeptide affinity resin, single incubation; PI3-kinase assay
bovine p85α = molecular target: T4, bovine p85α (bovine, UniProt P23727 1-724); assay: deletion mutants and PCR fragments of p110-N; retention of p85
T4 construct: Expressed by baculovirus in Sf9 cells or from pMT2-p85α in COS-1 cells, or native from bovine brain; which one is said under assay; also called 85 kD subunit; baculovirus expressed p85α
Source text: (§3) The interation of the p85 and p110 subunits of PI3-kinase are thought to be required for the activity of the kinase in mammalian cells. Thus inhibiting the interaction between the subunits could provide a means of inhibiting the activity of this signal transduction pathway. In order to design reagents to p110 which will block the interaction, it is useful to define the region of […] which binds to the p85 subunits. To do this a series of mutants were constructed which express various domains of the […] protein (FIG. 23B). These fragments were expressed as GST fusion proteins in bacteria. The proteins were then bound to a glutathione sepharose column (Pharmicia) according to the manufacturer's instructions (Panayotou G et al (1992) Embo J 11:4261-4272). The ability of these protein fragments to bind the p85 subunits was assessed by the ability of the column specifically to retain p85 subunits purified from baculovirus (Otsu et al (1991) Cell 65:91-104). […] To further characterise the binding domain, deletion mutants and PCR fragments were made from the p110-N fragment as shown in FIG. 24. […] Removal of a further 20 amino acids from either the amino or carboxy termini led to loss of binding activity. Now that this domain has been identified it allows the design of specific peptides, antibodies or small molecules which can inhibit the interaction between the subunits.

bovine p85β = molecular target: T5, bovine p85β (bovine, UniProt P23726 1-724); assay: as above
T5 construct: Expressed by baculovirus in Sf9 cells or in COS-1 cells; also called baculovirus expressed p85β
Source text: as §3

p85β = molecular target: T6, p85β (Bos taurus, UniProt P23726); assay: Retention of p85β by GST-p110 fragments on glutathione sepharose column; assay type: binding; conditions: GST fusion protein expressed in bacteria
T6 construct: made in house; host or cells: baculovirus / insect cells
Source text: as §3

p85α [4] = molecular target: T1, p85α; assay: Retention of p85α by GST-p110 fragments on glutathione sepharose column; assay type: binding; set-up: made in house; host or cells: baculovirus / insect cells; conditions: GST fusion protein expressed in bacteria
Source text: as §3

T1 sequence (P23727 whole entry): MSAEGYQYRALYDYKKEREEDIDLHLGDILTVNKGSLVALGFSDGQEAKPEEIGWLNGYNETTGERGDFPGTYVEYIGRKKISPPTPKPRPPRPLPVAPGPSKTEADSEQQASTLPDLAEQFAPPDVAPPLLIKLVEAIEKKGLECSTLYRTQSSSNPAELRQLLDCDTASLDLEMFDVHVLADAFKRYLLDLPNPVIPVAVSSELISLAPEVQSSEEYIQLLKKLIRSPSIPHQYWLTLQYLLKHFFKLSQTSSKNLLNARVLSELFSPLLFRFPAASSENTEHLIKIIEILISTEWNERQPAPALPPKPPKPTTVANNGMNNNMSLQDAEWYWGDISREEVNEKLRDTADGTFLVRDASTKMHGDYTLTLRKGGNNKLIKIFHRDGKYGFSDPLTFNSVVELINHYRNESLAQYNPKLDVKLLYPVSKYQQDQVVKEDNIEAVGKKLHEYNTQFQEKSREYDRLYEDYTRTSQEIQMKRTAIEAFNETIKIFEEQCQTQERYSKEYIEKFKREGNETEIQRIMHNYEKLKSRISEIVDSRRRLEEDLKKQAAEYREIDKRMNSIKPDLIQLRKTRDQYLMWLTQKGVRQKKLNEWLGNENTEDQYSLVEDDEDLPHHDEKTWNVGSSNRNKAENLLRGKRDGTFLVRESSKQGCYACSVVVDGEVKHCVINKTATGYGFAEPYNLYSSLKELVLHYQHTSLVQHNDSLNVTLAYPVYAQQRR
T4 sequence (P23727 whole entry, the tested form may be a part): as the sequence (P23727 whole entry) above
T6 sequence (P23726 whole entry, the tested form may be a part): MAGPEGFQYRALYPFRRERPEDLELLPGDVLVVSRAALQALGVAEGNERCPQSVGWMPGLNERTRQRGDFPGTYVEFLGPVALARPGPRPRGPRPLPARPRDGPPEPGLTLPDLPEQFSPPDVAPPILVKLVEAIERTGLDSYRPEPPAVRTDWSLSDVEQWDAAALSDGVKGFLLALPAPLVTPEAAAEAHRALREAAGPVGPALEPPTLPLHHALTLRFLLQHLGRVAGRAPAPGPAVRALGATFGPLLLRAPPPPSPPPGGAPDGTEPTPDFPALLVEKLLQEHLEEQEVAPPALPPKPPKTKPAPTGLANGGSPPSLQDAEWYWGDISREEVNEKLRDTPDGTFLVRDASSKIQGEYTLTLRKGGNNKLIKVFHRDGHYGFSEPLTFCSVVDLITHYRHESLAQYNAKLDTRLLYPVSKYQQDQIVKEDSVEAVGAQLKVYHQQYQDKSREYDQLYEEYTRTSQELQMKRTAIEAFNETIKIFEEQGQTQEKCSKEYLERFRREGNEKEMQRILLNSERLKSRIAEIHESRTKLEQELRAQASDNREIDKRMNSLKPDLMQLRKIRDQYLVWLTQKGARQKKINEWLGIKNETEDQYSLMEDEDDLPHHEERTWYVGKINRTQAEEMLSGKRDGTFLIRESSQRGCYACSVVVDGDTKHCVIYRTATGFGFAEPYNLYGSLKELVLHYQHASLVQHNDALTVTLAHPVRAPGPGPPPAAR
T5 sequence (P23726 whole entry): as the sequence (P23726 whole entry, the tested form may be a part) above
T3 sequence (P07333 20-972): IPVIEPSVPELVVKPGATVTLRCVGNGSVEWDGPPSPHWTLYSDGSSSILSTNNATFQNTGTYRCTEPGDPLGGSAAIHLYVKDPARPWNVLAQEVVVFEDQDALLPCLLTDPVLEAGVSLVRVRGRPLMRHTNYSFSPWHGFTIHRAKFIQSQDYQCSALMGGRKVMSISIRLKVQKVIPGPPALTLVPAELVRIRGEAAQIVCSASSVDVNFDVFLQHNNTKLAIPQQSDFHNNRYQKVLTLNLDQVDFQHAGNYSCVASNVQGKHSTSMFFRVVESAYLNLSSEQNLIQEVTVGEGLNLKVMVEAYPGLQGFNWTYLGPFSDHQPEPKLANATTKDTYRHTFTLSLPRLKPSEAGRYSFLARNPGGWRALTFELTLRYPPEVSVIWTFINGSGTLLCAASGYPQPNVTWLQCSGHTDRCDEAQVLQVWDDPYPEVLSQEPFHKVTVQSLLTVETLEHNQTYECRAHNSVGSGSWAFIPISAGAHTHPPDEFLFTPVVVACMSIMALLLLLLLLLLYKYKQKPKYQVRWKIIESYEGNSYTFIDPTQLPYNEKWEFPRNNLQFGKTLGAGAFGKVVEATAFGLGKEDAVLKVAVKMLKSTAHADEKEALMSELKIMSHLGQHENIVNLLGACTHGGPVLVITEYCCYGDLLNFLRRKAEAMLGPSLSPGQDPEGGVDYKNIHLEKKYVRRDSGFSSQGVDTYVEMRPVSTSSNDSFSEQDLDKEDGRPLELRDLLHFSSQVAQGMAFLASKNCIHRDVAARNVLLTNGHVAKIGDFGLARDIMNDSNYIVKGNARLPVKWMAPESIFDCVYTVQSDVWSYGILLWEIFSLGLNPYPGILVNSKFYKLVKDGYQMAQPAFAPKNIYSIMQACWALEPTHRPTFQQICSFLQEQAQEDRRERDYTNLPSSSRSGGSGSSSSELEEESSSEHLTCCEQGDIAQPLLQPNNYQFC
T2 sequence (P23727 whole entry): as the sequence (P23727 whole entry) above
T2 sequence (P32871 whole entry partner): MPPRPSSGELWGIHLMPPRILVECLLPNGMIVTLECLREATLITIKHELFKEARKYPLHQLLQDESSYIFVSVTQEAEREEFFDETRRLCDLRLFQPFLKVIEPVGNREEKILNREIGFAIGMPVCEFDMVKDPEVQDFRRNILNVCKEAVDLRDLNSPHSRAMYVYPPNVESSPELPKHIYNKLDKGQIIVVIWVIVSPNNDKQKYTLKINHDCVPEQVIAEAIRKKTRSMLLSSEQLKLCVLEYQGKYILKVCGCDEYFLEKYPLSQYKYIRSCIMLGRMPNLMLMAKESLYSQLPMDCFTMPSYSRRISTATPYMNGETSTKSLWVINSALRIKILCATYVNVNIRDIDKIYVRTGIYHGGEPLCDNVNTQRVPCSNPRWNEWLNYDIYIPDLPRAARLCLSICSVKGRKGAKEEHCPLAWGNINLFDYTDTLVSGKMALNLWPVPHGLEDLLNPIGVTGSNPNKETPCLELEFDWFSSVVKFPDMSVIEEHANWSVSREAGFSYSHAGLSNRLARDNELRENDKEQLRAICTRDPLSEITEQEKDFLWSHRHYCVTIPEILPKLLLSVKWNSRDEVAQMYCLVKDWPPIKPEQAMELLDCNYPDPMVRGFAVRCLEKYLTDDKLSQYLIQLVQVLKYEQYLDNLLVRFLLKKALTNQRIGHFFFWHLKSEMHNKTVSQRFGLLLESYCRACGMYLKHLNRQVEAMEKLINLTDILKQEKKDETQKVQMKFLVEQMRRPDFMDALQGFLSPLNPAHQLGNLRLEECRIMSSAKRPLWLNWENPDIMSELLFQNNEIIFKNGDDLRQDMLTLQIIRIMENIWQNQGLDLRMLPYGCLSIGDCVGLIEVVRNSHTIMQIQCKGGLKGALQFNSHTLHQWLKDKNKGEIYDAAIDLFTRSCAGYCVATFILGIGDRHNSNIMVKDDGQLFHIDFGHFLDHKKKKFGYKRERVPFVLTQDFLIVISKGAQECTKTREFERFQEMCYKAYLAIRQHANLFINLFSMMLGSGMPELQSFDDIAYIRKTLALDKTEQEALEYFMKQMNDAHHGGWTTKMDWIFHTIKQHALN

## A R D I M R D S N Y I S K G S T F (ARDIMRDSNYISKGSTF) [Peptide Y587, 17 amino acid phosphopeptide around the second major tyrosine phosphorylation site in the PDGF β-receptor]
p85α [1]; Sf9 cell lysate, SDS-PAGE of bound proteins
  binding of baculovirus expressed p85α to the peptide column: bind both columns to a similar extent

## D M S K D E S V D Y V P M L D M K [Y751 phosphopeptide]
Bovine brain PI3-kinase
  PI3-kinase activity removed from Mono Q peaks 1 or peak 2 by the column: > 90%
p85α [1]
  binding of baculovirus expressed p85α to the peptide column: bind both columns to a similar extent

## p85α: 85 kD subunit of PI3-kinase, baculovirus expressed
[2]
  PI3-kinase activity of immunoprecipitates: inactive
CSF-1 receptor
  association of PI3-kinase activity with CSF-1 receptor: No PI3-kinase activity associates

## p110: bovine PI3-kinase 110 kD subunit, 1068 amino acids, calculated molecular mass 124,247
[2]
  PI3-kinase activity of immunoprecipitates: significant levels of PI3-kinase activity
[3]
  PI3-kinase activity of anti-p110 immunoprecipitates: no activity above that present in control immunoprecipitates
CSF-1 receptor
  association of PI3-kinase activity with CSF-1 receptor: No PI3-kinase activity associates

## partially purified bovine brain PI3-kinase (p85α/p110 complex) (from UniProt P23727 2-724; P32871 1-1068) (enzyme)
Y751 phosphopeptide
  PI3-kinase activity removed by the column: > 90%

B1: human p110 19-110 with a further 20 amino acids removed from the amino terminus (other)
chain: EATLITIKHELFKEARKYPLHQLLQDESSYIFVSVTQEAEREEFFDETRRLCDLRLFQPFLKVIEPVGNREE
notes: Limits 39-110 are calculated from 'Removal of a further 20 amino acids'
Bovine p85α
  binding result: no binding
Bovine p85β
  binding result: no binding

B2: human p110 19-110 with a further 20 amino acids removed from the carboxy terminus (other)
chain: RILVECLLPNGMIVTLECLREATLITIKHELFKEARKYPLHQLLQDESSYIFVSVTQEAEREEFFDETRRLC
notes: Limits 19-90 are calculated from 'Removal of a further 20 amino acids'
Bovine p85α
  binding result: no binding
Bovine p85β
  binding result: no binding

B3: p110-N: GST fusion of human p110 fragment αα1-128 (protein)
chain: MPPRPSSGELWGIHLMPPRILVECLLPNGMIVTLECLREATLITIKHELFKEARKYPLHQLLQDESSYIFVSVTQEAEREEFFDETRRLCDLRLFQPFLKVIEPVGNREEKILNREIGFAIGMPVCEF
modifications: left off: a dimerising Fc or GST
p85β
  ability of p110 fragment to bind p85β subunit: capable of binding
p85α [4]
  ability of p110 fragment to bind p85α subunit: capable of binding

B4: amino acids 19-110 of human p10: domain of human p110, amino acids 19-110, from deletion mutants of p110-N (protein, UniProt P42336 19-110, looked up, fragment)
chain: RILVECLLPNGMIVTLECLREATLITIKHELFKEARKYPLHQLLQDESSYIFVSVTQEAEREEFFDETRRLCDLRLFQPFLKVIEPVGNREE
p85β
  ability of p110 fragment to bind p85β subunit: sufficient to associate with the p85 subunits
p85α [4]
  ability of p110 fragment to bind p85α subunit: sufficient to associate with the p85 subunits
